In patent JP2024513915A (dated 2024):

Molecular target: CD33 (UniProt P20138 18-364, limits assumed)
Experiment: cell-based or functional assay

CD33, sequence (P20138 18-364 limits assumed): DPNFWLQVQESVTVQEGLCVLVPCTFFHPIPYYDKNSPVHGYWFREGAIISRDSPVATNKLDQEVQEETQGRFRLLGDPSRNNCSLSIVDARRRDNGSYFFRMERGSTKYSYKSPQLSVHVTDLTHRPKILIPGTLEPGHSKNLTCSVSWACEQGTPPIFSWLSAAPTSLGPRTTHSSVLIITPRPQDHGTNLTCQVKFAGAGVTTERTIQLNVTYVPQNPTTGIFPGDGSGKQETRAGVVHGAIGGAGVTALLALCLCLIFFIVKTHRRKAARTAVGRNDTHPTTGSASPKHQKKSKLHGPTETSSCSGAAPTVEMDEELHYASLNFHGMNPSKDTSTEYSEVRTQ

B1: AMV564 (bispecific antibody)
chain: DIQMTQSPSSLSASVGDRVTITCRSSTGAVTTSNYANWVQQKPGKAPKALIGGTNKRAPGVPSRFSGSLIGDKATLTISSLQPEDFATYYCALWYSNLWVFGQGTKVEIKGGSGGSQVQLVQSGAEVKKPGASVKVSCKASGYTFTSYDINWVRQAPGQGLEWMGWMNPNSGNTGFAQKFQGRVTMTRDTSTSTVYMELSSLRSEDTAVYYCARDRANTDYSLGMDVWGQGTLVTVSSGGSGQSVLTQPPSASGTPGQRVTISCSGSRSNIGSNTVNWYQQLPGTAPKLLIYGNNQRPSGVPDRFSGSKSGTSASLAISGLQSEDEADYYCATWDDSLIGWVFGGGTKLTVLGGSGGSEVQLVESGGGLVQPGGSLRLSCAASGFTFSTYAMNWVRQAPGKGLEWVGRIRSKYNNYATYYADSVKDRFTISRDDSKNSLYLQMNSLKTEDTAVYYCARHGNFGNSYVSYFAYWGQGTLVTVSS
CD4+及びCD8+T細胞増殖: > 2 fold
